From patent publication US20230002492A1 (SIMCERE SHANGHAI PHARMACEUTICAL, published 2023)

B1: 156-11H (antibody, V domains shown)
VH: QVQLVQSGPELKKPGASVKISCKASGYTFTDYYMNWVRQAPGQSLEWIGDIWPNNGDTSYNQKFKGRVTLTRDTSTSTVYMELRSLRSEDTAVYYCARSVMDYWGQGTLVTVSS
VL: EIVLTQSPALLSLSPGERVTLSCSASSSVNYVYWYQQKPGQAPRPLIYLTFNLASGIPARFSGSGSGTDFTLTISSLEPEDFAVYYCQQWSVNPLTFGGGTKVEIK
B2: 156-1H (antibody, V domains shown)
VH: QVQLVQSGPELKKPGASVKISCKASGYTFTDYYMNWVRQAPGQSLEWIGDIWPNNGDTWYNQKFKGRVTLTRDTSTSTVYMELRSLRSEDTAVYYCARSVMDYWGQGTLVTVSS
VL: EIVLTQSPALLSLSPGERVTLSCSASSSVNYVYWYQQKPGQAPRPLIYLTFNLASGIPARFSGSGSGTDFTLTISSLEPEDFAVYYCQQWSVNPLTFGGGTKVEIK
B3: 156-7H (antibody, V domains shown)
VH: QVQLVQSGPELKKPGASVKISCKASGYTFTDYYMNWVRQAPGQSLEWIGDIWPNNGDTSYNQKFKGRVTLTRDTSTSTVYMELRSLRSEDTAVYYCARSVMDTWGQGTLVTVSS
VL: EIVLTQSPALLSLSPGERVTLSCSASSSVNYVYWYQQKPGQAPRPLIYLTFNLASGIPARFSGSGSGTDFTLTISSLEPEDFAVYYCQQWSVNPLTFGGGTKVEIK
B4: 156-10H (antibody, V domains shown)
VH: QVQLVQSGPELKKPGASVKISCKASGYTFTDYYMNWVRQAPGQSLEWIGDIWPNNGDTSYNQKFKGRVTLTRDTSTSTVYMELRSLRSEDTAVYYCARSVMSDWGQGTLVTVSS
VL: EIVLTQSPALLSLSPGERVTLSCSASSSVNYVYWYQQKPGQAPRPLIYLTFNLASGIPARFSGSGSGTDFTLTISSLEPEDFAVYYCQQWSSNPLTFGGGTKVEIK
B5: PDL1-50 (antibody, V domains shown)
VH: EVQLQESGGDLVKPGGSLKLSCAASGFTFNTYGMSWVRQTPDKRLEWVATLSSGGSYTYYSESVKGRFTISRDNAKNTLYLQMTSLKSEDTAIYYCARPTADWHLDVWGTGTTVTVSS
VL: DIQMTQSPSSLSASLGGKVTITCKASQDINKYIAWYQHKPGKGPRLLIHYTSTLQPGIPSRFSGSGSGRDYSFSISNLEPEDIATYYCLQHDNLLFTFGSGTKLEIK
B6: PDL1-34 (antibody, V domains shown)
VH: EVQLQESGGDLVKPGGSLKLSCAASGFTFNTYGMSWVRQTPDKRLEWVATLSSGGSYTYYSESVKGRFTISRDNAKNTLYLQMNSLKSEDTAIYYCARPTADWHLDVWGTGTTVTVSS
VL: DILMTQSPSSLSASLGGKVTITCNASQDINKYIAWYQHKPGKGPSLLIHYTSTLQPGIPSRFSGSGSGRDYSFSISNLEPEDIATYYCLQHDNLLFTFGSGTKLEIK
B7: PDL1-90 (antibody, V domains shown)
VH: EVQLQESGGDLVKPGGSLKLSCTASGFTFSTYGMSWVRQTPDKRLEWVATVSSGGSYTYYPDSVKGRFTISRDNAKNTLYLQMSSLKSEDTAIYYCARPTADWHLDVWGTGTTVTVSS
VL: DIQMTQTPSSLSASLGGKVTITCKASQDINRYIAWYQHKPGKGPSLLIHYTSTLQPGIPSRFSGSGSGRDYSFSISNLEPEDIATYYCLQHDNLLFTFGSGTKLEIK
B8: PDL1-130 (antibody, V domains shown)
VH: EVQLQESGPGLAKPSQTLSLTCSVTGYSITSDYWNWIRKFPGNKLEYVGYISYTGSTYYNPSLRSRISITRDTSKNQYYLQLNSVTAEDTATYYCARCPGWLNAMDYWGQGTTVTVSS
VL: DILMTQSPSSLAVSVGEKVTLSCKSSQSLLYSNNQKNSLAWYQQKPGQSPKLLIYWASTGESGVPDRFTGSGSGTDFTLTISSVKAEDLAVYYCQQYYGYPFTFGAGTKLEIK
B9: PDL1-373 (antibody, V domains shown)
VH: EVQLQESGGGLVKPGGSLKLSCAASGFTFSDYGMHWVRQAPEKGLEWVAYISSGSSTIYYADTVKGRFTISRDNAKNTLFLQMTSLRSEDTAMYYCARRNFGSSYDYWGQGTTVTVSS
VL: EIVMTQSHKFMSTSVGDRVSITCKASQDVDTPVAWYQQKPGQSPRLLIYWASIRHTGVPDRFTGSGSGTDFTLTISNVQSEDLADYFCQQYSSYPLTFGSGTKLEIK
B10: PDL1-370 (antibody, V domains shown)
VH: EVQLQESGPGLAKPSQTLSLTCSVTGYSITSDYWNWIRKFPGNKLEYMGYISYTGSTYYNPSLKSRISIARDTSRNQYYLQLNSVTTEDSATYYCARAGGWLLPFAVWGTGTTVTVSS
VL: DIVITQSPSSLAVSVGEKVTMSCKSSQSLLYSSNQQNSLAWYQQKPGQSPILLIYWASTRESGVPDRFTGGGSGTDFTLTISSVRAEDLAVYYCQQYYNYPWTFGGGTKLEIK
B11: PDL1-413 (antibody, V domains shown)
VH: EVQLQESGPGLAKPSQTLSLTCSVTGYSITSDYWNWIRKFPGNKLEYMGYISYTGSTYYNPSLKSRISIARDTSRNQYYLQLKSVTTEDTATYYCARAGGWLLPFAVWGTGTTVTVSS
VL: DIVMTQSPSSLAVSVGEKVTMSCKSSQSLLYSSNQQNSLAWYQQKPGQSPILLIYWASTRESGVPDRFTGSGSGTDFTLTISSVRAEDLAVYYCQQYYSYPWTFGGGTKLEIK
B12: PDL1-794 (antibody, V domains shown)
VH: EVQLQESGPSLVKPSQTLSLTCSVTGDSITSGYWNWIRKFPGNKLEYMGYISYSGSTYYNPFLKSRISITRDTSKNQYYLQLNSVTTEDTATYYCAKMGDWLAWFAYWGQGTTVTVSS
VL: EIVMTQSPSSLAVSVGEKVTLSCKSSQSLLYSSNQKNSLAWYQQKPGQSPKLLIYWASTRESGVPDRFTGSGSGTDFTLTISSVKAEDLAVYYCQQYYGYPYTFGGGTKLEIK

Legend:
[1] = target: T1, PD-L1 on the surface of CHO-PD-L1 cells (UniProt Q9NZQ7 19-290, limits assumed); assay: cell-based or functional assay
T1 sequence (Q9NZQ7 19-290 limits assumed): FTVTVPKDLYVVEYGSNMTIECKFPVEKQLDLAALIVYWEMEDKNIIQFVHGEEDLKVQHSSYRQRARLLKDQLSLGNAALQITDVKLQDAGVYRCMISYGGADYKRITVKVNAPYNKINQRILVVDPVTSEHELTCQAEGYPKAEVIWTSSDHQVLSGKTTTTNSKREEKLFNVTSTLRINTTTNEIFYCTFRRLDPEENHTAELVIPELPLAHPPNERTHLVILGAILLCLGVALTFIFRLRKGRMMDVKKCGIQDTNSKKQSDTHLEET

[2] = target: T1, PD-L1 on the surface of CHO-PD-L1 cells; assay: flow cytometry on CHO-PD-L1 cells, anti-human IgG PE
Method: (§1) A gradient concentration of antibodies to be detected (final concentration of antibody: 10000 ng/ml-0.1 ng/ml, 10-foldserial dilution) were incubated with CHO-PD-L1 cells (Nanjing Yongshan Biotechnology Co., Ltd., 10⁵ cells/well) with high expression of PD-L1 on the cell surface at 4° C. ° C. for 30min. After incubation, 1:250 diluted anti-human IgG PE fluorescent antibody (eBioscience, Cat. 12-4998-8) was added, and incubated at 4° C. for 30 min. The fluorescent antibody specifically bound to the Fc fragment of the antibody to be detected. The fluorescent intensity of PE was detected by FACS, and the ability of the antibody to be detected to bind to PD-L1 protein highly expressed on the cell surface was analyzed. […] MFI fold=MFI value of the experimental group/MFI value of the control group without drugs.

[3] = target: T2, recombinant human PD-L1 protein (Sino Biological, Cat. 10084-H05H) (human, UniProt Q9NZQ7 19-239); assay: competitive ELISA: PD-L1 coated, antibody titrated against PD-1-His, anti-His-HRP
T2 construct: also called PD-L1-mFc; human PD-L1 protein fused with mouse Fc
T2 sequence (Q9NZQ7 19-239 limits assumed): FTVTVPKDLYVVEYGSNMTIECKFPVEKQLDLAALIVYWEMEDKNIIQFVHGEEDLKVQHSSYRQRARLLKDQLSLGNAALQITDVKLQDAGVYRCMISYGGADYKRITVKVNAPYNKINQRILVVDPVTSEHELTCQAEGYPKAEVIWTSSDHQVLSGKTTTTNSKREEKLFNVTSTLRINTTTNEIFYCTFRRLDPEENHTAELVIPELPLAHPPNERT
Method: (§2) The recombinant human PD-L1 protein (Sino Biological, Cat. 10084-H05H) was diluted with carbonate buffer and added to a 96-well plate at a final concentration of […]. […] Then HRP-labeled anti-His tag antibody (MBL, Cat. D291-7) was added, and color development was performed with TMB. After termination with 1M sulfuric acid, OD values (dual wavelength 450 nm-630 nm) were read. The competitive binding curve of the test antibody can be drawn by matching the antibody concentration with the OD value to calculate the IC50 value.

[4] = target: T3, recombinant human PD-L1-His (Novoprotein, Cat. 315) (human, UniProt Q9NZQ7 19-239); assay: SPR, Biacore T200, antibody captured, human PD-L1-His injected, 1:1 model, 25 C
T3 construct: Bought protein; also called human PD-L1 recombinant protein; human PDL1 protein; not shown: His tag
T3 sequence (Q9NZQ7 19-239 limits assumed): as above
Method: (§3) Biacore T200 (GE Healthcare) was used to determine binding affinity of the PD-L1 antibody to the human and cynomolgus monkey PD-L1-His proteins. Anti-human IgG Fc (Genway, Cat. GWB-20A705) was immobilized on CM5 chip (GE Healthcare, Cat. BR-1005-30) at 25° C. Anti-human Fc (Genway, Cat. GWB-20A705) was diluted to […] with Acetate pH5.0 (GE Healthcare, BR-1003-51). The Amine method in the Immobilization method was used to immobilize. Alternatively, a commercially available Protein A (GE Healthcare, Cat. 29127556) chip was used for detection. […] In each cycle, the antibody to be tested was captured on the fixed CM5 chip, then injected with recombinant human PD-L1-His (Novoprotein, Cat. 315) and cynomolgus monkey PD-L1-His protein (Sino Biological, Cat. 90251-CO8H), and finally regenerated with Glycine pH1.5. The mobile phase was HBS-EP+Buffer (GE Healthcare, Cat. BR-1006-69), the flow rate was 30 μL/min, and the binding time was 300 seconds. The regeneration flow rate was 30 μL/min and the time was 30 seconds. Using Biacore T200 evaluation software (version 3.0), a 1:1 binding model was used to analyze the experimental data, fit the equilibrium dissociation constant KD of the antibody and antigen, and determine the binding rate constant Ka and dissociation rate constant Kd.

[5] = target: T3, recombinant human PD-L1-His …; assay: SPR, Biacore T200, antibody captured, PD-L1-His injected, 1:1 model, 25 C
Method: as §3

[6] = target: T4, cynomolgus monkey PD-L1-His protein (Sino Biological, Cat. 90251-CO8H) (cynomolgus monkey, UniProt G7PSE7 19-238); assay: as above
T4 construct: Bought protein; also called cynomolgus monkey PD-L1 recombinant protein
T4 sequence (G7PSE7 entry or part of it limits assumed): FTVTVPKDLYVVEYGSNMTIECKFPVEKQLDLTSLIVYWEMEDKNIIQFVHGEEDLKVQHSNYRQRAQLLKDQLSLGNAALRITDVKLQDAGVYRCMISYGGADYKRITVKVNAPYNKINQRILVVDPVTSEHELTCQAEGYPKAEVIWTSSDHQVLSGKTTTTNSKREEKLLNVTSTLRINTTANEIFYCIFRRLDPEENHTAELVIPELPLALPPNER
Method: as §3

[7] = target: T1, PD-L1 on the surface of CHO-PD-L1 cells; assay: flow cytometry on CHO-PD-L1 cells, anti-human IgG PE, MFI fold, ng/ml is the unit of the concentration axis
Method: as §1

[8] = target: T2, recombinant human PD-L1 protein (Sino …); assay: competitive ELISA: coated human PD-L1 protein, antibody titrated together with human PD-1-His, bound PD-1-His detected with HRP anti-His
Method: as §2

Row | Binder | EC50 of NFAT luminescence reporter gene (RLU), Jurkat-PD-1 / CHO-PD-L1 co-culture [1] | EC50 [2] | IC50 [3] | Kd [4] | koff [4] | kon [4] | Kd [5] | Kd [6] | EC50 [7] | IC50 [8]
1 | B1 | 0.282 µg/mL | 0.05 µg/mL | 0.207 µg/mL | 0.336 nM | 0.000193 s⁻¹ | 574000 M⁻¹ s⁻¹ | – | – | – | –
2 | B2 | 0.342 µg/mL | 0.0494 µg/mL | 0.197 µg/mL | 0.458 nM | 0.000227 s⁻¹ | 494000 M⁻¹ s⁻¹ | – | – | – | –
3 | B3 | 0.314 µg/mL | 0.0784 µg/mL | 0.231 µg/mL | 0.348 nM | 0.00018 s⁻¹ | 518000 M⁻¹ s⁻¹ | – | – | – | –
4 | B4 | 0.357 µg/mL | 0.0635 µg/mL | 0.25 µg/mL | 0.224 nM | 0.000133 s⁻¹ | 595000 M⁻¹ s⁻¹ | – | – | – | –
5 | B5 | – | – | – | – | – | – | 0.699 nM | 33.1 nM | 0.113 µg/mL | 0.294 µg/mL
6 | B6 | – | – | – | – | – | – | 0.458 nM | 5.43 nM | 0.113 µg/mL | 0.276 µg/mL
7 | B7 | – | – | – | – | – | – | 0.87 nM | 62.5 nM | 0.119 µg/mL | 0.259 µg/mL
8 | B8 | – | – | – | – | – | – | 2.18 nM | 1.95 nM | 0.0646 µg/mL | 0.225 µg/mL
9 | B9 | – | – | – | – | – | – | 2.45 nM | 3.64 nM | 0.0633 µg/mL | 0.12 µg/mL
10 | B10 | – | – | – | – | – | – | 2.42 nM | 2.18 nM | – | 0.156 µg/mL
11 | B11 | – | – | – | – | – | – | 2.09 nM | 2.76 nM | – | 0.184 µg/mL
12 | B12 | – | – | – | – | – | – | 1.25 nM | 0.883 nM | – | 0.191 µg/mL
